Experimental data published in patent US12528864 (GlaxoSmithKline, dated 2026).

Key:
[1] = target: T1, recombinant murine CD96v2 (mouse, UniProt Q3U0X8 22-536, limits assumed); test: MSD solution equilibrium titration (MSD-SET), 25 C
T1 construct: Soluble recombinant protein used in MSD-SET; also called mouse CD96
T1 sequence (looked up): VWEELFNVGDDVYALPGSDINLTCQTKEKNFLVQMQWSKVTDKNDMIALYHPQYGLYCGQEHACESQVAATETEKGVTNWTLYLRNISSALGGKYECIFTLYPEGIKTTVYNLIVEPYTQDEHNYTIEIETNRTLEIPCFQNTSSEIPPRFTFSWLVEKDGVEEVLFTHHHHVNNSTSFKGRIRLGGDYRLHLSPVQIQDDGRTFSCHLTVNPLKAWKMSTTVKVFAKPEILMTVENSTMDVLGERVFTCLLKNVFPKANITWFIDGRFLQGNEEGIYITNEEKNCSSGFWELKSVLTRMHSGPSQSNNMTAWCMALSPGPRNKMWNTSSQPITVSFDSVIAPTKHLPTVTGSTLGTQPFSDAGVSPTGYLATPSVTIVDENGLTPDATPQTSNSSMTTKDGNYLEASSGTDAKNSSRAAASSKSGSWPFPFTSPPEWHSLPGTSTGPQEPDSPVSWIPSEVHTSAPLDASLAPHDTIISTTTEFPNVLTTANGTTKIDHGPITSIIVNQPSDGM

[2] = target: T2, recombinant cynomolgus monkey CD96v2 (cynomolgus monkey, UniProt A0A2K5TWV6 22-487, biotinylated (site not stated)); test: MSD solution equilibrium titration (MSD-SET), 25 C
T2 construct: Soluble recombinant protein used in MSD-SET; also called cynomolgus monkey biotinylated CD96 protein
T2 sequence: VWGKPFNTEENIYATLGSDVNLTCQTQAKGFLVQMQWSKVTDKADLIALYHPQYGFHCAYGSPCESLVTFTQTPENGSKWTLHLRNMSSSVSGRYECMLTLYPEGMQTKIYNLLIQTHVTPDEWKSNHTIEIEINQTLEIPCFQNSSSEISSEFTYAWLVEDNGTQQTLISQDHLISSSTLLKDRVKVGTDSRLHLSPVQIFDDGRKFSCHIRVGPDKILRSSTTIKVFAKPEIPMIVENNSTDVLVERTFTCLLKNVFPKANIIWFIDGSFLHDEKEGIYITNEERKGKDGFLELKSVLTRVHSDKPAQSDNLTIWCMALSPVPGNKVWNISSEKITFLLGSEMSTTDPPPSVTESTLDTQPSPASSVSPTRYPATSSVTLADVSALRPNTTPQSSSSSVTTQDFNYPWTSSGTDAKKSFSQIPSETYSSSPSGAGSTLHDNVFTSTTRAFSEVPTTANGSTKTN

[3] = target: T3, recombinant human CD96v2 (human, UniProt P40200-2 22-503, limits assumed, biotinylated (site not stated)); test: MSD solution equilibrium titration (MSD-SET), 25 C
T3 construct: Soluble recombinant protein used in MSD-SET; also called Biotinylated human CD96 protein
T3 sequence (looked up): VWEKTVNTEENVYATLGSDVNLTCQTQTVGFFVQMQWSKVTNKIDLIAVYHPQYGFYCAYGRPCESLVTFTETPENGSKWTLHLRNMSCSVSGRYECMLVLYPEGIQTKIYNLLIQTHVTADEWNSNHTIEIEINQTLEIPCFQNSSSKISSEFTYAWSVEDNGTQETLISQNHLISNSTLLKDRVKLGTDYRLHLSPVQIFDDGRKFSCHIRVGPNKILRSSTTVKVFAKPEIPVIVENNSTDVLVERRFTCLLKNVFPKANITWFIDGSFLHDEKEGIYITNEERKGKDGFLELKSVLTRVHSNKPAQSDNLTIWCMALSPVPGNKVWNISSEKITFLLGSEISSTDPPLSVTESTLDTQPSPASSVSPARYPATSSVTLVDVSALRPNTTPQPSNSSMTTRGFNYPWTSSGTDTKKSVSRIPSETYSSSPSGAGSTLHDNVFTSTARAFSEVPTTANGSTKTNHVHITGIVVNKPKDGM

[4] = target: T4, human CD96v1 on transiently transfected HEK cells (human, UniProt P40200 22-585); test: flow cytometry on transiently transfected HEK cells; geometric mean, n = 3
T4 construct: whole, on cells
T4 sequence (looked up): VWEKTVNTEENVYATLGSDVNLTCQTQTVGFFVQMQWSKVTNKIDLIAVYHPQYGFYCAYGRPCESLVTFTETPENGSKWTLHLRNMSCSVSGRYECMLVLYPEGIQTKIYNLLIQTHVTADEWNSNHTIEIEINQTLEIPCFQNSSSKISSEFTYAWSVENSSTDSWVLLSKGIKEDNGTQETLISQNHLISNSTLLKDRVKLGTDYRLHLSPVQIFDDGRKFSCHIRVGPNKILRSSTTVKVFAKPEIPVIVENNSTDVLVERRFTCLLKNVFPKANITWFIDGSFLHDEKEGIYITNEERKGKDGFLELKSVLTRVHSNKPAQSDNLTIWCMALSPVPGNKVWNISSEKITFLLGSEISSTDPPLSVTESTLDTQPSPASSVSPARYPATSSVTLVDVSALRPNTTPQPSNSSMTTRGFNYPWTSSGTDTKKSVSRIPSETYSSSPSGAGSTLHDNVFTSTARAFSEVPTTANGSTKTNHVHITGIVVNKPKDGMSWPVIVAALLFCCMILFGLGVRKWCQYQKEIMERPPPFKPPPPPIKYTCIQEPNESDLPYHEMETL

[5] = target: T5, blood derived cynomolgus monkey CD96v2 on transiently transfected HEK cells (cynomolgus monkey); test: as above
T5 construct: also called Blood derived Cyno CD96v2

[6] = target: T6, cynomolgus monkey CD96v1 on transiently transfected HEK cells (cynomolgus monkey); test: as above
T6 construct: whole, on cells; also called Cyno CD96v1

- Kd [1]: 0.479 nM
- Kd [2]: 0.278 nM
- Kd [3]: 0.02 nM
- EC50 [4]: 5.28 nM
- EC50 [5]: 7.34 nM
- EC50 [6]: 9.17 nM
B1: 42Y073-86F08-66 (antibody)
heavy: not shown
light: DIQLTQSPSSLSASVGDRVTITCRASQSISSYLNWYQQKPGKAPKLLIYAASSLQSGVPSRFSGSGSGTDFTLTISSLQPEDFATYYCQQVLHTITFGGGTKVEIKRTVAAPSVFIFPPSDEQLKSGTASVVCLLNNFYPREAKVQWKVDNALQSGNSQESVTEQDSKDSTYSLSSTLTLSKADYEKHKVYACEVTHQGLSSPVTKSFNRGEC
notes: also called GSK 6097608; GSK6097608
